From doi:10.1101/2020.07.16.206169 come the findings set out here.

Assay [1] deals with PorZ from Porphyromonas gingivalis (Porphyromonas gingivalis) (UniProt Q9S3Q8). Nature of the assay: MST.
For assay [2] the target is unchanged. Nature of the assay: MST. This is another data set of the same source.

pKd: −log10 of the molar value. Where two headings read alike, the source gives them in different places.

For “PorU sortase from Porphyromonas gingivalis, hexahistidine-tagged (from UniProt B2RGP6 1-1158) (enzyme)”, the pKd was 6.17 in assay [1] and 5.47 in assay [2].
